Measurements: US20250115671A1 (BEIGENE, published 2025)

How the values were obtained:
huCCR8 D178A [1] = biological target: T1, huCCR8 D178A (human, UniProt P51685 1-355); test: flow cytometry, transfected Expi293 cells, serial dilution from 200 nM
T1 construct: Point mutant on transfected Expi293 cells
Experimental: (§1) In comparison, the 10A11 reference antibody recognizes D14, Y17, D19 on the N-terminal domain of huCCR8 as the mutation on these sites totally abolished the binding, indicating no overlap in epitope between the reference antibody 10A11 and hu305-5W-3a. To further confirm the critical roles of these sites for binding, the transfected Expi293 cells were stained with a serial dilution of hu305-5W-3a from 200 nM followed by detection with Alexa Fluor 647 Rabbit Anti-Human IgG (Cat.: 309-605-008 Jackson ImmunoResearch) to obtain a full binding curve. […] D178 and M266 are considered as 2nd tier epitopes having media impact on Hu305-5W-3a binding. Substitution them with Ala will lead to ˜3 folds decrease of EC50.

huCCR8 M266A [2] = biological target: T2, huCCR8 M266A (human, UniProt P51685 1-355); test: as above
T2 construct: Point mutant on transfected Expi293 cells
Experimental: as §1

huCCR8 E177A [3] = biological target: T3, huCCR8 E177A (human, UniProt P51685 1-355); test: as above
T3 construct: Point mutant on transfected Expi293 cells
Experimental: as §1

human CCR8 [4] = biological target: T4, human CCR8 (human, UniProt P51685 1-355); test: as above
T4 construct: Full length; also called huCCR8; C-C motif chemokine receptor 8
Experimental: as §1

huCCR8 L269A [5] = biological target: T5, huCCR8 L269A (human, UniProt P51685 1-355); test: as above
T5 construct: Point mutant on transfected Expi293 cells
Experimental: as §1

huCCR8 D26A [6] = biological target: T6, huCCR8 D26A (human, UniProt P51685 1-355); test: as above
T6 construct: Point mutant on transfected Expi293 cells
Experimental: as §1

huCCR8 Y172A [7] = biological target: T7, huCCR8 Y172A (human, UniProt P51685 1-355); test: as above
T7 construct: Point mutant on transfected Expi293 cells
Experimental: as §1

huCCR8 D178A [8] = biological target: T1, huCCR8 D178A; test: flow cytometry, transfected Expi293 cells, antibody at 50, 10 and 1 nM
Experimental: (§2) To more precisely determine the specific amino acid residues that are crucial for antibody binding to human CCR8, point mutations were introduced to ECL2, ECL3 and N-terminal regions of human CCR8, as shown in the first column of Table 19. To evaluate the impact of each mutant, humanized anti-CCR8 antibody hu305-5W-3a was used to react with transfected Expi293 cells as described above with the concentration of 50 nM, 10 nM and 1 nM (results summarized in Table 19). The critical amino acids for hu305-5W-3a binding are marked with an “X” indicating a loss of >50% compared with wild type huCCR8, which is considered significant.

huCCR8 M266A [9] = biological target: T2, huCCR8 M266A; test: as above
Experimental: as §2

huCCR8 E177A [10] = biological target: T3, huCCR8 E177A; test: as above
Experimental: as §2

huCCR8 L269A [11] = biological target: T5, huCCR8 L269A; test: as above
Experimental: as §2

huCCR8 D26A [12] = biological target: T6, huCCR8 D26A; test: as above
Experimental: as §2

huCCR8 Y172A [13] = biological target: T7, huCCR8 Y172A; test: as above
Experimental: as §2

human CCR8 [14] = biological target: T4, human CCR8; test: flow cytometry, 293T-huCCR8 cells
From the text: (§3) After washing twice with FACS buffer, cells were resuspended with FACS buffer and acquired on a Beckton Dickinson LSR Fortessa™. Titration curves were generated using sigmoid dose-response of nonlinear fit from GraphPad, and the EC50s of representative antibodies are shown in Table 2.

mouse CCR8 = biological target: T8, mouse CCR8 (mouse, UniProt P56484 1-353); test: flow cytometry on transfected Expi293 cells, serial dilution
T8 construct: Full length, transiently expressed on Expi293 cells; also called muCCR8; CCR8-mo8
T8 sequence: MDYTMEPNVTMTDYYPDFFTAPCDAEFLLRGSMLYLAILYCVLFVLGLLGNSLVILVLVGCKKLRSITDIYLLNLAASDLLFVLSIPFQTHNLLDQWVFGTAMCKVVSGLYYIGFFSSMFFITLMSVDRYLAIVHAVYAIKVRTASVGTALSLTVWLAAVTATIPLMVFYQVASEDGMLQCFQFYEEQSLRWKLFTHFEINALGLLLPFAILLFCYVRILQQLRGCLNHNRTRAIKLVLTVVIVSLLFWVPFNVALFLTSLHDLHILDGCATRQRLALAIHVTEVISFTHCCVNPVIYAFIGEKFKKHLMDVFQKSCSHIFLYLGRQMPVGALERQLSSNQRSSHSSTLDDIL
Experimental: The plasmids containing these chimeric CCR8 constructs, and human CCR8 (CCR8-hu8) and mouse CCR8 (CCR8-mo8) as control, were used to transfect Expi293™ cells for transient protein expression, after which cells were incubated with a serial dilution of the purified Ch305 as well as a reference antibody 10A11 from Shionogi (US 2022/0064312 A1). The binding of each construct was evaluated detection with Alexa Fluor 647 Rabbit Anti-Human IgG (Cat.: 309-605-008 Jackson ImmunoResearch). […] In addition, replacing the human CCR8 N-terminal region with mouse CCR8 N-terminal (CCR8_Ch1) also weakly impairs the affinity, which means human CCR8 N-terminal contributes to the binding activity of human CCR8 with Ch305. In the meanwhile, substituting mouse CCR8 N-terminal with human CCR8 N-terminal (CCR8_Ch5) rescues the binding activity of murine CCR8 with Ch305 to some extent much weaker than the binding activity of wild type human CCR8 to Ch305, which means human CCR8 N-terminal contributes but weakly or partly to the binding activity of human CCR8 with Ch305. […] In comparison, the reference antibody 10A11 binds to the N-terminal region of CCR8 only and it has no binding to ECL1, ECL2 and ECL3, that is, the epitope of 10A11 on human CCR8 locates only on N-terminal of human CCR8 (FIG. 9B).

Cynomolgus Monkey CCR8 = biological target: T9, Cynomolgus Monkey CCR8 (cynomolgus monkey, UniProt O97665 1-356 (rhesus entry)); test: flow cytometry, 293T-cynoCCR8 cells
T9 construct: also called cyno CCR8; cynoCCR8
T9 sequence (O97665 other isoform, or with tags, fused parts or gaps): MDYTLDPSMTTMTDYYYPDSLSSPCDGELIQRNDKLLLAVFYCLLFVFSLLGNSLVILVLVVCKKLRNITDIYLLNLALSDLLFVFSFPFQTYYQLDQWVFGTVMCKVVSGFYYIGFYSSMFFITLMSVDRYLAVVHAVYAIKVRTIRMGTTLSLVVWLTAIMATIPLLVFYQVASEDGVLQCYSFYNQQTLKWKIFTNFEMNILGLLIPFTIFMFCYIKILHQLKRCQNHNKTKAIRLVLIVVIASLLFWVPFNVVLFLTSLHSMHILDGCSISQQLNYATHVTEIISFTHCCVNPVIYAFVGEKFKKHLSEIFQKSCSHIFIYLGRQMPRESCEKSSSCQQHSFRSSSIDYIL
From the text: as §3

human CCR8 [15] = biological target: T4, human CCR8; test: flow cytometry, Jurkat-human CCR8 cells
Experimental: To evaluate the binding activity of anti-CCR8 antibodies to bind CCR8 expressed on living cells, Jurkat cells were engineered to over-express human CCR8. Jurkat-human CCR8 cells were seeded in 96-well plate and incubated with a series of dilutions of anti-CCR8 antibodies. Goat anti-human IgG was used as secondary antibody to detect antibody binding to the cell surface. EC50 values for dose-dependent binding to human CCR8 were determined by fitting the dose-response data to the four-parameter logistic model with GraphPad Prism. As shown in Table 4 and FIG. 3 the CCR8 antibodies had high binding affinity to human CCR8.

[16] = biological target: T10, human CCR8 N-terminal domain-mouse Fc tag fusion protein (human (CCR8 part), mouse IgG2a Fc); test: ELISA, plate coated with human CCR8 N-terminal domain-Fc fusion
T10 construct: also called huCCR8-N-mIgG2a; human CCR8 N-terminal protein
T10 chain: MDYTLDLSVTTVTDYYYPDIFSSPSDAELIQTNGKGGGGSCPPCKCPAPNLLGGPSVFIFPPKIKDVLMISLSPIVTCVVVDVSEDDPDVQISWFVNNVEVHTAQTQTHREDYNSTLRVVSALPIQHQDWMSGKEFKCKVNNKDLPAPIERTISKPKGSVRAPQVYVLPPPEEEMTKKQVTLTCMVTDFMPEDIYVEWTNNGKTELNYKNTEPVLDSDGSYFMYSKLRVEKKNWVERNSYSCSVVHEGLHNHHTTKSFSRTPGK
Experimental: To determine whether anti-CCR8 antibodies bind to the N-terminal domain of human CCR8, ELISA plates were coated with human CCR8 N-terminal domain-mouse Fc tag fusion protein (SEQ ID NO: 28 and 29) overnight at 4° C. After washing and blocking, serially diluted anti-CCR8 antibodies were added to plates and incubated for 1 hour at room temperature. After washing, diluted HRP goat anti-human IgG Fc or HRP goat anti-mouse kappa chain (for 433H) secondary antibodies were added to plates and incubated for 45 minutes at room temperature. After washing, TMB substrate was added to plates for developing and then stopped by adding TMB substrate stop solution. The absorbance was read at 450 nm using a plate reader. […] It is a non CCR8 N-terminal loop binder.

human CCR8 [17] = biological target: T4, human CCR8; test: cell-based or functional assay

B1: hu305-5W-3a (antibody, V domains shown)
VH: QVQLKQSGPGLVKPSETLSLTCTVSGFSLAVYGVHWVRQPPGKGLEWLGVIWRGGTTDYNPSLKSRLTFSKDSSKSQVSLKLSSVTAADTAVYYCAKNRVTTVVAPNFYAMDYWGQGTLVTVSS
VL: DIVMTQSPDSLAVSLGERATINCKSSQSLLYSGNQKNYLAWYQQKPGQPPKLLIYWASTRKSGVPDRFSGSGSGTDFTLTISSLKAEDVAVYYCQQYYTYPLTFGQGTRLEIK
- EC50 (huCCR8 D178A [1]): 18.3 nM
- fold change of EC50 against wild type huCCR8 (huCCR8 D178A [1]): ~3 fold
- EC50 (huCCR8 M266A [2]): 19.4 nM
- fold change of EC50 against wild type huCCR8 (huCCR8 M266A [2]): ~3 fold
- EC50 (huCCR8 E177A [3]): 25.4 nM
- fold change of EC50 against wild type huCCR8 (huCCR8 E177A [3]): > 4 fold
- EC50 (human CCR8 [4]): 6.3 nM
- EC50 (huCCR8 L269A [5]): 27.4 nM
- fold change of EC50 against wild type huCCR8 (huCCR8 L269A [5]): > 4 fold
- EC50 (huCCR8 D26A [6]): 16.8 nM
- fold change of EC50 against wild type huCCR8 (huCCR8 D26A [6]): > 2 fold
- EC50 (huCCR8 Y172A [7]): 26.3 nM
- fold change of EC50 against wild type huCCR8 (huCCR8 Y172A [7]): > 4 fold
- loss of binding compared with wild type huCCR8 (huCCR8 D178A [8]): > 50%
- loss of binding compared with wild type huCCR8 (huCCR8 M266A [9]): > 50%
- loss of binding compared with wild type huCCR8 (huCCR8 E177A [10]): > 50%
- loss of binding compared with wild type huCCR8 (huCCR8 L269A [11]): > 50%
- loss of binding compared with wild type huCCR8 (huCCR8 D26A [12]): > 50%
- loss of binding compared with wild type huCCR8 (huCCR8 Y172A [13]): > 50%

B2: Ch305 (antibody, V domains shown)
VH: QVQMKQSGPSLVQPSQSLSITCTVSGFSLTSYGVHWVRQSPGKGLEWLGVIWRGGTTDYNAAFMSRLSFTKDSSKSQVFFKLNSLQADDTAIYYCAKNRVTTVVAPNFYAMDYWGQGTSVTVSS
VL: DIVMTQSPSSLAVSVGEKVTMSCKSSQSLLYSGNQKNYLAWYQQKPGQSPKLLIYWASTRKSGVPDRLTGSGSGTDFTLTISSVKAEDLAAYYCQQYYTYPLTFGAGTRLEIK
- EC50 (human CCR8 [14]): 3.67 nM
- binding result (mouse CCR8): no binding
- EC50 (Cynomolgus Monkey CCR8): 4.1 nM
- EC50 (human CCR8 [15]): 9.37 nM
- EC50 [16]: 5.01 nM
- IC50 (nM), ligand blocking activity (PathHunter beta-arrestin) (human CCR8 [17]): 5.9 nM
